The sequences below were run against CCHF Peptide 1 (envelope surface peptide) (Crimean-Congo hemorrhagic fever virus) (UniProt Q8JSZ3) (assay: SPR). Details: not given.
UniProt Q8JSZ3, sequence (Q8JSZ3 whole entry, looked up): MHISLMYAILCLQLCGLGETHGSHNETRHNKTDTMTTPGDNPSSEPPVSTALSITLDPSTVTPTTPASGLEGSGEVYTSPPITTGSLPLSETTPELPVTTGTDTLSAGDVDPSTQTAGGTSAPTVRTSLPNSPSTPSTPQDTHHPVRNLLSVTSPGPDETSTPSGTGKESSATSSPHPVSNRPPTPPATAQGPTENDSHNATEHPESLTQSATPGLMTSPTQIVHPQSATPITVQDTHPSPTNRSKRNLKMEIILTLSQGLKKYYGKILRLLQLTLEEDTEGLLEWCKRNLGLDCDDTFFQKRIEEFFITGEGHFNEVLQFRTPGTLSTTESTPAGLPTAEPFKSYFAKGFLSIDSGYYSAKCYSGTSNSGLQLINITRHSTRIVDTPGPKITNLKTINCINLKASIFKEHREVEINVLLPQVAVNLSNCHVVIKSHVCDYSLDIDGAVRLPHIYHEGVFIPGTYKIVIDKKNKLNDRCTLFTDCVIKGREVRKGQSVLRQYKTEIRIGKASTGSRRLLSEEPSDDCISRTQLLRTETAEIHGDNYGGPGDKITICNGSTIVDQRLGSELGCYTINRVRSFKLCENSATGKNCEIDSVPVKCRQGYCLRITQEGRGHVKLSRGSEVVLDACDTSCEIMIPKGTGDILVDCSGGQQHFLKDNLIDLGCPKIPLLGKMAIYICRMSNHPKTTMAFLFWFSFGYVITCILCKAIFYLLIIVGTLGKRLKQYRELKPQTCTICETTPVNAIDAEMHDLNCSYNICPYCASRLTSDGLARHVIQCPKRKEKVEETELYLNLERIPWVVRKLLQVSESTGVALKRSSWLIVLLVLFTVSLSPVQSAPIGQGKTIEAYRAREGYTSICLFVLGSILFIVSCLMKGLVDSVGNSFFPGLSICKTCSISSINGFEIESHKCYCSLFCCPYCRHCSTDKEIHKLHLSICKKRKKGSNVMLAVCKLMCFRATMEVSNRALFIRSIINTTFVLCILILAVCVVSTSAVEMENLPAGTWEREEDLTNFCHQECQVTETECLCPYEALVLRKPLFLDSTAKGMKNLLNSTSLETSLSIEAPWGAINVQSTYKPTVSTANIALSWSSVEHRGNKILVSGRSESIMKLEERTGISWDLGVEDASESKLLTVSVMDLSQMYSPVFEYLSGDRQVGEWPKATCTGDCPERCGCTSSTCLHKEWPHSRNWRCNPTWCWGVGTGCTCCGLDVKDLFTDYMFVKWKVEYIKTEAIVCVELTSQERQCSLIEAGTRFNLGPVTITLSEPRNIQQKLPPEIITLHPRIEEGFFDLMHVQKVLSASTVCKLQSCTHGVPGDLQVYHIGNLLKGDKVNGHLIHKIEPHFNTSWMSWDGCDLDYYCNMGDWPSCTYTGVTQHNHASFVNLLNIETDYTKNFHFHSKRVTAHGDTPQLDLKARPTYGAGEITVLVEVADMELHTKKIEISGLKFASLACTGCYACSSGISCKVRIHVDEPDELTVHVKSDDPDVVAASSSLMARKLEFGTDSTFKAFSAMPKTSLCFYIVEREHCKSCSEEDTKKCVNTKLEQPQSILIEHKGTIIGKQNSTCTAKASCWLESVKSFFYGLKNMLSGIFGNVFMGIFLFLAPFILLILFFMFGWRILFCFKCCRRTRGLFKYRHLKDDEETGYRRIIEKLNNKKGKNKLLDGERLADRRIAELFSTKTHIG
“ATACGGGAGCCAACACCATGGTGACGGACCTTGAGAGCAAGACCGCTACGATTCAGAGCAGGTGTGACGGAT [C1-9F]” was tested, and the Kd was 8.13 pM.

These sequences were tested on CCHF envelope peptides (individual peptide not specified) (Crimean-Congo hemorrhagic fever virus) (assay: ELONA). Details: not given.
“ATCCGTCACACCTGCTCTATACCAACGGGGGACGGTCTGAGCTAGTGACGCCCGTGGTGTTGGCTCCCGTAT [C3-7R]” showed a binding signal of 1.5 A405.
“ATACGGGAGCCAACACCAATGAGAGCAAAGATCCCAGGATACACTAATCCCTGTAGAGCAGGTGTGACGGAT [C1-3F]” was tested, and the binding signal was 1.85 A405.
Work on “ATCCGTCACACCTGCTCTGCAAAGAGGTCGTAGTGCCGTGTCCGGTCGGATACCTGGTGTTGGCTCCCGTAT [C2-10R]” yielded a binding signal of 1.66 A405.
“ATCCGTCACACCTGCTCTGGGCAGCACTACCGGTGTCGTTGTGTTGGCATTTCTTGGTGTTGGCTCCCGTAT [C1-6R]” showed a binding signal of 1.95 A405.
“ATCCGTCACACCTGCTCTACGGCCCTGCACCACTTATTCTAGGCAGTGTTCTTCTGGTGTTGGCTCCCGTAT [C1-10R]” showed a binding signal of 1.62 A405.
Work on “ATCCGTCACACCTGCTCTCGGGACGCGAGCGGCCTGCGGGAACCAGGCGGGGGCTGGTGTTGGCTCCCGTAT [C3-6R]” yielded a binding signal of 2.48 A405.
In the case of “ATCCGTCACACCTGCTCTCCAAGGACACGTCACCGTATTGGCCCAACACTATGGTGTTGGCTCCCGTAT [C3-8R]”, the binding signal is reported as 1.48 A405.
“ATACGGGAGCCAACACCATGGTGACGGACCTTGAGAGCAAGACCGCTACGATTCAGAGCAGGTGTGACGGAT [C1-9F]” showed a binding signal of 2.24 A405.
Sequence “ATACGGGAGCCAACACCACAGCTGACAATAGAAGGATATCCTGGGTACCGATGCAGAGCAGGTGTGACGGAT [C3-4F]” has a binding signal of 2.67 A405.
For “ATCCGTCACACCTGCTCTGCATCGGTACCCAGGATATCCTTCTATTGTCAGCTGTGGTGTTGGCTCCCGTAT [C3-4R]”, the binding signal was 2.47 A405.
“ATACGGGAGCCAACACCACAGACACCGAATGAGCAACACAACAACGGGACCCGTAGAGCAGGTGTGACGGAT [C2-8F]” was tested, and the binding signal was 1.65 A405.
“ATCCGTCACACCTGCTCTATGAGTCTATCCAGTTCTAAAAGTTCCGCTCTTTATTGGTGTTGGCTCCCGTAT [C1-1R]” was tested, and the binding signal was 1.99 A405.
In the case of “ATCCGTCACACCTGCTCTGAATCGTAGCGGTCTTGCTCTCAAGGTCCGTCACCATGGTGTTGGCTCCCGTAT [C1-9R]”, the binding signal is reported as 1.56 A405.
With “ATACGGGAGCCAACACCATAGTGTTGGGCCAATACGGTAACGTGTCCTTGGAGAGCAGGTGTGACGGAT [C1-1/7F]” the binding signal was 1.9 A405.
In the case of “ATCCGTCACACCTGCTCTCCAAGGACACGTTACCGTATTGGCCCAACACTATGGTGTTGGCTCCCGTAT [C1-1/7R]”, the binding signal is reported as 2.05 A405.

What follows are sequences tested on TBEV target (not specified) (Tick-borne encephalitis virus) (assay: ELONA). Details: not given.
Sequence “ATCCGTCACACCTGCTCTGCGAGGGGTGCTAGGGGTCAGAGACGGCCAAGTCAATGGTGTTGGCTCCCGTAT [TBEV-10R]” has a binding signal of 1.82 A405.
Sequence “ATACGGGAGCCAACACCACTCGGCACCGCCCTTCCGTATCGGCGAGTAACGTACAGAGCAGGTGTGACGGAT [TBEV-1F]” has a binding signal of 1.94 A405.
For “ATACGGGAGCCAACACCAGAGACGTCTTAGCCTCGCGATCCCGTCCGTTGGCCCAGAGCAGGTGTGACGGAT [TBEV-6F]”, the binding signal was 2.07 A405.
“ATCCGTCACACCTGCTCTGCGTTGGAGTATCTTCCCCGGTGCACTCCGTTCGTGTGGTGTTGGCTCCCGTAT [TBEV-3R]” showed a binding signal of 1.91 A405.
“ATACGGGAGCCAACACCACCGCAGGAGTCCATCAGGGGTTGGCAGTCAGCGCTCAGAGCAGGTGTGACGGAT [TBEV-2F]” gave a binding signal of 2.31 A405.
Sequence “ATACGGGAGCCAACACCATCCTCCCGCGACGTCTGGAGAACAGCCTCTACTTTAAGAGCAGGTGTGACGGAT [TBEV-7F]” has a binding signal of 2.02 A405.
“ATCCGTCACACCTGCTCTTAAAGTAGAGGCTGTTCTCCAGACGTCGCGGGAGGATGGTGTTGGCTCCCGTAT [TBEV-7R]” showed a binding signal of 1.97 A405.
“ATCCGTCACACCTGCTCTGAGCGCTGACTGCCAACCCCTGATGGACTCCTGCGGTGGTGTTGGCTCCCGTAT [TBEV-2R]” gave a binding signal of 2.6 A405.
For “ATACGGGAGCCAACACCACACGAACGGAGTGCACCGGGGAAGATACTCCAACGCAGAGCAGGTGTGACGGAT [TBEV-3F]”, the binding signal was 1.8 A405.
“ATCCGTCACACCTGCTCTGGGCCAACGGACGGGATCGCGAGGCTAAGACGTCTCTGGTGTTGGCTCCCGTAT [TBEV-6R]” showed a binding signal of 2.12 A405.
“ATACGGGAGCCAACACCACACACAGAGCGCCATGGACTCAGTCAGATGTGATGTAGAGCAGGTGTGACGGAT [TBEV-8F]” was tested, and the binding signal was 1.85 A405.
Sequence “ATACGGGAGCCAACACCATTGACTTGGCCGTCTCTGACCCCTAGCACCCCTCGCAGAGCAGGTGTGACGGAT [TBEV-10F]” has a binding signal of 1.95 A405.
“ATCCGTCACACCTGCTCTACATCACATCTGACTGAGTCCATGGCGCTCTGTGTGTGGTGTTGGCTCCCGTAT [TBEV-8R]” was tested, and the binding signal was 2.43 A405.
“ATCCGTCACACCTGCTCTGTACGTTACTCGCCGATACGGAAGGGCGGTGCCGAGTGGTGTTGGCTCCCGTAT [TBEV-1R]” showed a binding signal of 2.15 A405.
“ATACGGGAGCCAACACCAGCCAATTATACAGGTAGGTCAAAAAAGTTTAGGGGAAGAGCAGGTGTGACGGAT [TBEV-4F]” gave a binding signal of 1.88 A405.
“ATCCGTCACACCTGCTCTCAACGGCCACTAGTCTATTCACTTAAAGGGGCATGGTGGTGTTGGCTCCCGTAT [TBEV-5R]” was tested, and the binding signal was 1.93 A405.
“ATACGGGAGCCAACACCACCATGCCCCTTTAAGTGAATAGACTAGTGGCCGTTGAGAGCAGGTGTGACGGAT [TBEV-5F]” was tested, and the binding signal was 2.06 A405.
“ATCCGTCACACCTGCTCTTCCCCTAAACTTTTTTGACCTACCTGTATAATTGGCTGGTGTTGGCTCCCGTAT [TBEV-4R]” gave a binding signal of 2.12 A405.

What follows are sequences tested on WNV envelope peptide (West Nile virus) (assay: ELONA). Details: not given.
Sequence “ATACGGGAGCCAACACCATGTCAGGACCTCCATCGCCCGGGCCCGCCGCCGCTGAGAGCAGGTGTGACGGAT [WNV 16F]” has a binding signal of 2.45 A405.
Work on “ATCCGTCACACCTGCTCTGCCGGACCATCCGATATCAGCTGTGGTGTTGGCTCCCGTAT [WNV 19R]” yielded a binding signal of 2.18 A405.
With “ATCCGTCACACCTGCTCTCAGCGGCGGCGGGCCCGGGCGATGGAGGTCCTGACATGGTGTTGGCTCCCGTAT [WNV 16R]” the binding signal was 2.25 A405.
“ATACGGGAGCCAACACCACAGCTGATATCGGATGGTCCGGCAGAGCAGGTGTGACGGAT [WNV 19F]” gave a binding signal of 2.73 A405.
With “ATACGGGAGCCAACACCACCCCGTCGCCAAGCACTTGGCTGGGCTCTAACGGCCAGAGCAGGTGTGACGGAT [WNV 18F]” the binding signal was 2 A405.
“ATCCGTCACACCTGCTCTCAGAGACGGGGCCCCTGGCTGGGTGAAGGCCACGGGTGGTGTTGGCTCCCGTAT [WNV 20R]” was tested, and the binding signal was 2.47 A405.
Work on “ATACGGGAGCCAACACCACCCGTGGCCTTCACCCAGCCAGGGGCCCCGTCTCTGAGAGCAGGTGTGACGGAT [WNV 20F]” yielded a binding signal of 2.54 A405.

Same assay, conditions: also positive in lateral flow (FIG. 9C)
For “ATCCGTCACACCTGCTCTGGCCGTTAGAGCCCAGCCAAGTGCTTGGCGACGGGGTGGTGTTGGCTCCCGTAT [WNV 18R]”, the binding signal was 2.65 A405.

Each sequence was assayed on outer membrane proteins (OMPs) (Rickettsia belli) (assay: ELONA). Details: not given.
“ATACGGGAGCCAACACCATAACAAATAACCACCCTCAATGCTAGATAGTGGCTTAGAGCAGGTGTGACGGAT [R5-23F]” was tested, and the binding signal was 2.93 A405.
Sequence “ATACGGGAGCCAACACCAGCACTGCAGTTAACATTTACGAAGAGGCTTTAATGCAGAGCAGGTGTGACGGAT [R5-39F]” has a binding signal of 1.95 A405.
In the case of “ATCCGTCACACCTGCTCTAAATAGATCACGCATAATGGCATTAGTATTAGTGTTGGTGTTGGCTCCCGTAT [R5-21bR]”, the binding signal is reported as 1.89 A405.

Each sequence was assayed on outer membrane proteins (OMPs) (Rickettsia conorii) (assay: ELONA). Details: not given.
For “ATCCGTCACACCTGCTCTCCAGATTTGGTGTTATGCTCTTGTTTGGCTTGGACTTGGTGTTGGCTCCCGTAT [R4-14R]”, the binding signal was 2.05 A405.
In the case of “ATCCGTCACACCTGCTCTTTGGTTAATCCGAATTTGCTTGCACTTAAGTTGTGCTGGTGTTGGCTCCCGTAT [R4-1R]”, the binding signal is reported as 2.12 A405.
Sequence “ATACGGGAGCCAACACCAGCACAACTTAAGTGCAAGCAAATTCGGATTAACCAAAGAGCAGGTGTGACGGAT [R4-1F]” has a binding signal of 1.99 A405.

What follows are sequences tested on outer membrane proteins (OMPs) (Rickettsia parkeri) (assay: ELONA). Details: not given.
“ATACGGGAGCCAACACCAGAAAATGAATACTTCCCAAGCTTGTCAAGCAAGTAAGAGCAGGTGTGACGGAT [R2-5F]” gave a binding signal of 1.95 A405.
“ATACGGGAGCCAACACCATAACGGTTCCCTTAATGCGCTACCCACACTATACAAGAGCAGGTGTGACGGAT [R2-14F]” showed a binding signal of 2.08 A405.
In the case of “ATCCGTCACACCTGCTCTTTTCCTATGAATGGTAATCAATTAGAGTCTATATCTTGGTGTTGGCTCCCGTAT [R2-17R]”, the binding signal is reported as 2.05 A405.

These sequences were tested on outer membrane proteins (OMPs) (Rickettsia rickettsii) (assay: ELONA). Details: not given.
Work on “ATCCGTCACACCTGCTCTACATCACATCTGACTGAGTCCATGGCGCTCTGTGTGTGGTGTTGGCTCCCGTAT [R3-39R]” yielded a binding signal of 2.05 A405.
“ATCCGTCACACCTGCTCTTTCACTAAGCTGACTTTTCACCTCGTCTTCGTGCCGTGGTGTTGGCTCCCGTAT [R3-40R]” was tested, and the binding signal was 1.99 A405.
Sequence “ATACGGGAGCCAACACCACACACAGAGCGCCATGGACTCAGTCAGATGTGATGTAGAGCAGGTGTGACGGAT [R3-39F]” has a binding signal of 2.12 A405.

These sequences were tested on outer membrane proteins (OMPs) (Rickettsia typhi) (assay: ELONA). Details: not given.
“ATACGGGAGCCAACACCACCAACGAATACTACCAGGCCTAGCACAATACACAACAGAGCAGGTGTGACGGAT [R1-27bF]” was tested, and the binding signal was 2.62 A405.
In the case of “ATCCGTCACACCTGCTCTTGCTTATATTTAATTTTTTTCCCAAACTAGTAAGATTGGTGTTGGCTCCCGTAT [R1-21R]”, the binding signal is reported as 2.88 A405.
“ATCCGTCACACCTGCTCTACAGTTAGAGCTTGCCGTATGCCTTTGTTAACATAATGGTGTTGGCTCCCGTAT [R1-30R]” was tested, and the binding signal was 2.85 A405.
